Source: patent publication US20030119169A1

Target: truncated Mch3α (amino acids 199-303), p12 subunit (human) (UniProt P55210)
Experiment: cell-based or functional assay

truncated Mch3α (amino acids 199-303), p12 subunit (human), sequence (P55210 199-303): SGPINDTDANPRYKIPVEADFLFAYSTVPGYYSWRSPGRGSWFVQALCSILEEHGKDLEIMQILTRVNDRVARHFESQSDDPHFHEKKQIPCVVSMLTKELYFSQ

apoptotic Sf9 cells on coexpression (percentage of cells): > 50%
Substance: CPP32-p20 subunit (from UniProt P42574 29-175) (enzyme)
